For 66 sequences, protein stability index results are on record in the supplement of paper PMC10724198.

± gives the standard deviation of the averaged measurements.

Data set [1] concerns Saccharomyces cerevisiae. Nature of the data set: protein stability index of tFT-peptide fusion in wild type (PSI (0-1 scale)); higher = more stable (slower turnover). As to conditions: genetic background: wild type. The procedure: (§1)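 MPS profiling in S. cerevisiae of two library types built from selected 12-aa C-degron peptides (IN1, IN2, LN1, LN3, VN2, R1-R5, W1-W3, Atg1 and Rpa12 C-termini): saturation mutagenesis libraries and C-terminal +1 capping libraries (13 aa). Each peptide is fused to the C-terminus of a sfGFP-mCherry timer, after a GGGS linker. Cells are FACS-sorted into 8 mCherry/sfGFP bins and sequenced. PSI runs from 0 (unstable) to 1 (stable), measured once in wild type and in the das1Δ or doa10Δ background.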

Data set [2] relates to Saccharomyces cerevisiae. The data set is described as follows: protein stability index of tFT-peptide fusion in deletion strain of DAS1 (PSI (0-1 scale)); higher = more stable (slower turnover). Here is the method:
as §1

Data set [3] concerns Saccharomyces cerevisiae. The data set is described as follows: protein stability index of tFT-peptide fusion (C-terminal peptide) (PSI (0-1 scale)); higher = more stable (slower turnover). Conditions: temperature: 30 C. The procedure: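 MPS profiling in S. cerevisiae of the yeast C-terminome library: the last 12 aa of each annotated ORF are fused to the C-terminus of a sfGFP-mCherry timer, after a GGGS linker. Cells are FACS-sorted into 8 mCherry/sfGFP bins and deep-sequenced. PSI runs from 0 (unstable) to 1 (stable); wild type and das1Δ backgrounds, two technical replicates each.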

Where [4] appears, read: genetic background: das1 deletion.
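For protein stability index of tFT-peptide fusion in deletion strain of DAS1 in this document: PSI is a weighted mean of each variant's read distribution over the sorted stability bins, computed only for variants having over 10 reads in total.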
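For protein stability index of tFT-peptide fusion in wild type in this document: PSI derived as read-weighted mean over the 8 sorting bins, only variants exceeding 10 total reads kept, mCherry placed adjacent to the peptide and sfGFP distal.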

ADKRNHLIKLLN: the protein stability index in data set [1] is 0.129; in data set [2] it was 0.587.

In the case of AKILRQKMNHQN, the protein stability index worked out at 0.185 in data set [1] and 0.688 in data set [2].

As to ANWRVGLWRGAS, the figures for the protein stability index in data set [1] and in data set [2] were 0.498 and 0.685, respectively.

Turning to ARDRVGLWRGAS, the protein stability index in data set [1] is 0.575; in data set [2], 0.716.

Turning to ARKRVGLWRGAS, the protein stability index in data set [1] was 0.517; in data set [2] it was 0.691.

ARMRVGLWRGAS: the figures for the protein stability index in data set [1] and in data set [2] were 0.645 and 0.702, respectively.

As for ARSRVGLWRGAS, the protein stability index in data set [1] came to 0.591; in data set [2], 0.698.

In the case of ARVRVGLWRGAS, the protein stability index in data set [1] amounted to 0.599; in data set [2], 0.694.

Take ARWDVGLWRGAS: the protein stability index in data set [1] was 0.543; in data set [2], 0.729.

On to ARWRGGLWRGAS, for which the protein stability index in data set [1] was 0.543; in data set [2] it was 0.677.

In the case of ARWRPGLWRGAS, the protein stability index was found to be 0.668 in data set [1] and 0.679 in data set [2].

For ARWRSGLWRGAS, the protein stability index came to 0.665 in data set [1] and 0.676 in data set [2].

In the case of ARWRVGLPRGAS, the protein stability index in data set [1] turned out to be 0.688; in data set [2], 0.666.

For the sequence ARWRVGLWRGASK, the protein stability index in data set [1] worked out at 0.672; in data set [2], 0.622.

Turning to ARWRVGLWRGAV, the protein stability index in data set [1] was 0.395; in data set [2] it was 0.688.

Turning to ARWRVGLWRGFS, the protein stability index was found to be 0.599 in data set [1] and 0.678 in data set [2].

Regarding ARWRVGLWRGQS, the protein stability index was determined as 0.416 in data set [1] and 0.695 in data set [2].

Consider ARWRVGLWRGWS, for which the protein stability index in data set [1] stood at 0.668; in data set [2], 0.69.

Turning to ARWRVGLWRLAS, the protein stability index in data set [1] turned out to be 0.0888; in data set [2] it was 0.672.

In the case of ARWRVGQWRGAS, the protein stability index in data set [1] was determined as 0.614; in data set [2], 0.682.

As for ARWRVNLWRGAS, the protein stability index in data set [1] came out at 0.34; in data set [2], 0.708.

For ARWRVRLWRGAS, the protein stability index in data set [1] was 0.333; in data set [2] it was 0.671.

ARWRWGLWRGAS: the values for the protein stability index in data set [1] and in data set [2] were 0.55 and 0.681, respectively.

As to ASMRWTFRYWVN, the protein stability index in data set [1] worked out at 0.0684; in data set [2], 0.602.

As for ATSCGYKFRTNN, the protein stability index in data set [1] is 0.235; in data set [2], 0.671.

On to CASCGYKFRTNN, for which the protein stability index in data set [1] is 0.281; in data set [2], 0.714.

Consider CLSCGYKFRTNN, for which the protein stability index in data set [1] came to 0.228; in data set [2], 0.701.

On to CTSCAYKFRTNN, for which the protein stability index was found to be 0.172 in data set [1] and 0.665 in data set [2].

For CTSCDYKFRTNN, the protein stability index in data set [1] is 0.556; in data set [2], 0.689.

With CTSCGTKFRTNN, the values for the protein stability index in data set [1] and in data set [2] were 0.552 and 0.693, respectively.

Consider CTSCGWKFRTNN, for which the protein stability index was 0.306 in data set [1] and 0.673 in data set [2].

As for CTSCGYGFRTNN, the results for the protein stability index in data set [1] and in data set [2] were 0.594 and 0.693, respectively.

Turning to CTSCGYKFRANN, the figures for the protein stability index in data set [1] and in data set [2] were 0.538 and 0.698, respectively.

Turning to CTSCGYKFRNNN, the values for the protein stability index in data set [1] and in data set [2] were 0.681 and 0.703, respectively.

As to CTSCGYKFRTFN, the protein stability index came to 0.335 in data set [1] and 0.712 in data set [2].

For CTSCGYKFRTNH, the protein stability index is 0.191 in data set [1] and 0.68 in data set [2].

Regarding CTSCGYKFRTNNM, the protein stability index was 0.679 in data set [1] and 0.69 in data set [2].

Regarding CTSCGYKFRTSN, the protein stability index in data set [1] turned out to be 0.273; in data set [2] it was 0.704.

For CTSCGYKFRTVN, the protein stability index came out at 0.15 in data set [1] and 0.705 in data set [2].

CTSCGYKGRTNN: the protein stability index in data set [1] stood at 0.658; in data set [2], 0.674.

On to CTSCGYKKRTNN, for which the protein stability index was 0.474 in data set [1] and 0.692 in data set [2].

Turning to CTSCGYKNRTNN, the protein stability index in data set [1] came to 0.705; in data set [2], 0.696.

Regarding CTSCGYKPRTNN, the values for the protein stability index in data set [1] and in data set [2] were 0.693 and 0.683, respectively.

CTSCGYRFRTNN: the protein stability index in data set [1] was found to be 0.464; in data set [2], 0.679.

In the case of CTSCKYKFRTNN, the protein stability index in data set [1] stood at 0.376; in data set [2], 0.69.

With CTSCQYKFRTNN, the protein stability index in data set [1] turned out to be 0.334; in data set [2] it was 0.689.

With CTSHGYKFRTNN, the protein stability index in data set [1] was 0.242; in data set [2] it was 0.689.

On to CTSIGYKFRTNN, for which the protein stability index in data set [1] stood at 0.153; in data set [2], 0.695.

CTSPGYKFRTNN: the protein stability index was 0.254 in data set [1] and 0.686 in data set [2].

As to CTSSGYKFRTNN, the figures for the protein stability index in data set [1] and in data set [2] were 0.413 and 0.634, respectively.

Regarding CTYCGYKFRTNN, the protein stability index turned out to be 0.269 in data set [1] and 0.705 in data set [2].

For the sequence FGMRWTFRYWVN, the protein stability index in data set [1] was 0.0525; in data set [2], 0.53.

On to FIMRWTFRYWVN, for which the protein stability index is 0.0251 in data set [1] and 0.251 in data set [2].

FRWRVGLWRGAS: the values for the protein stability index in data set [1] and in data set [2] were 0.0957 and 0.668, respectively.

Take FSFRWTFRYWVN: the protein stability index in data set [1] worked out at 0.089; in data set [2], 0.54.

As for FSLRWTFRYWVN, the protein stability index in data set [1] was found to be 0.0436; in data set [2], 0.467.

On to FSMHWTFRYWVN, for which the protein stability index is 0.0392 in data set [1] and 0.664 in data set [2].

Take FSMRATFRYWVN: the protein stability index was 0.0843 in data set [1] and 0.545 in data set [2].

For FSMRETFRYWVN, the figures for the protein stability index in data set [1] and in data set [2] were 0.048 and 0.596, respectively.

As for FSMRTTFRYWVN, the protein stability index is 0.0969 in data set [1] and 0.623 in data set [2].

Consider FSMRWFFRYWVN, for which the protein stability index in data set [1] is 0.0657; in data set [2], 0.602.

Turning to YSDEASAQKKRF [RPS2 C-terminal 12 aa], the figures for the protein stability index in data set [3] (setting [4]) and in data set [3] (genetic background: wild type) were 0.698 ± 0.0098 and 0.709 ± 0.039, respectively.

YTPDQGVSLIDL [ENT2 C-terminal 12 aa]: the protein stability index in data set [3] (setting [4]) came out at 0.6978 ± 0.005; in data set [3] (genetic background: wild type), 0.7 ± 0.015.

For YTSWQTIKMWSQ [AVT3 C-terminal 12 aa], the protein stability index in data set [3] (setting [4]) amounted to 0.658 ± 0.007; in data set [3] (genetic background: wild type), 0.654 ± 0.029.

With YVPPPTYTEMAS [ART10 C-terminal 12 aa], the protein stability index in data set [3] (setting [4]) was 0.7074 ± 0.0038; in data set [3] (genetic background: wild type), 0.66 ± 0.011.

Take YVSHKGFITEDL [RPL9A C-terminal 12 aa]: the protein stability index was 0.689 ± 0.055 in data set [3] (setting [4]) and 0.679 ± 0.035 in data set [3] (genetic background: wild type).
